Data: publication PMC2742894, “Crystal Structure of the N-Acetylmannosamine Kinase Domain of GNE” (PLoS ONE, 2009)

Target: the molecule itself
Test: SEC; Superdex-200 10/300; GNE kinase domain at 6 mg per mL in 20 mM HEPES pH 7.5, 500 mM NaCl, 5 mM MgCl2, 1 mM TCEP; apparent molecular weight from a calibration curve

B1: N-acetylmannosamine kinase domain of UDP-GlcNAc 2-epimerase/N-acetylmannosamine kinase (GNE), residues 406-720 (domain or fragment, human, UniProt Q9Y223 406-720, looked up)
chain: TLSALAVDLGGTNLRVAIVSMKGEIVKKYTQFNPKTYEERINLILQMCVEAAAEAVKLNCRILGVGISTGGRVNPREGIVLHSTKLIQEWNSVDLRTPLSDTLHLPVWVDNDGNCAALAERKFGQGKGLENFVTLITGTGIGGGIIHQHELIHGSSFCAAELGHLVVSLDGPDCSCGSHGCIEAYASGMALQREAKKLHDEDLLLVEGMSVPKDEAVGALHLIQAAKLGNAKAQSILRTAGTALGLGVVNILHTMNPSLVILSGVLASHYIHIVKDVIRQQALSSVQDVDVVVSDLVDPALLGAASMVLDYTTRR
notes: UDP-GlcNAc 2-epimerase/N-acetylmannosamine kinase (GNE), human, kinase domain, residues 406-720; cDNA codon optimized for E. coli and synthesized; Cloned into pET28-MHL (gi:134105571); For crystallization 1:100 chymotrypsin (w/w) and 5 mM ADP were added to the protein stock, so the crystallized chain may be trimmed; residues 475-498 are not seen in the electron density; A …
stoichiometry N: 2
